Assays:
[1] = Insulin biosynthesis, summarised in Example 6; format: cell-based
fat cells = test: Cellular experiments with recombinant RUCILP2 summarised in Example 6 (fat and liver cells); format: cell-based
Caco-2 cell line = test: Intestinal barrier gene expression in Caco-2 cells (hypoxia/reoxygenation); format: cell-based, human; conditions: Caco-2, q-PCR
Protocol: FIG. 13. […] The cells were treated with various doses of RUCILP2, and cells were collected for q-PCR quantification on indicated genes. For integrin inhibitor treatment, cells were treated with 10 uM of cRGDyK (Selleckchem, #S7844) for 10 minutes and washed with PBS before treated with RUCILP2. Data are presented as mean+/−SEM of one representative experiment done in technical triplicate. Statistical significance was determined by unpaired two-tailed Student's t-test. *, p<0.05 vs 0 nM RUCILP2.
Commercially available Caco-2 cells (ATCC, #HTB-37) were seeded on 12-well plates under EMEM medium (Eagle's Minimum Essential Medium, ATCC, #30-2003), supplemented with 20% FBS (Fetal Bovine Serum, Fisher Scientific, #11550356) and 1% Penicillin-Streptomycin (Fisher Scientific, #11548876). Cell cultures were maintained in a humidified chamber with 5% CO2 at 37° C., and culture media were changed every 2-3 days.
At 70% confluence, to induce the hypoxia/reoxygenation (H/R) cell culture model, Caco-2 cells were cultured in EMEM medium (glucose and FBS free) and exposed to hypoxia conditions (94% N2, 5% C02 and 1% O2) at 37° C. for 120 minutes. Next, cells were treated for 24 hours with indicated concentrations of recombinant RUCILP2 or commercial recombinant irisin (Sigma, #SRP8039-10UG and Phoenix pharmaceuticals, #067-29A) or PBS immediately at the beginning of reoxygenation. […]

inguinal fat = test: Daily intraperitoneal injection of RUCILP2 into chow-fed mice, gene expression in inguinal fat; format: in vivo, mouse; conditions: 1 mg/kg i.p. daily, 7 days, normal chow
Protocol: FIG. 17. […] No effects on expression of marker genes for lipolysis. Recombinant RUCILP2 was daily injected intraperitoneal at a concentration of 1 mg/kg into 9-week-old wild type C57BL/6N mice for one week. The mRNA levels of indicated genes were analyzed by qRT-PCR. Data were expressed as mean±SEM, *, p<0.05; **, p<0.01; ***, p<0.001, when compared with phosphate-buffered saline (PBS) group, n=9 animals/group.
Mice (20 male wild type C57BL/6N, 8 weeks of age, Janvier) were single-housed at 23±1° C. on a 12-hour light/12-hour dark cycle with access to food and water ad libitum. After 7 days of acclimatization on a standard chow diet (Altromin 1328 diet contains 11% of fat, 24% of protein, and 65% of carbohydrates. This diet is a cereal-based (soy, wheat, corn) fixed formula which is free of alfalfa and fish/animal meal and deficient in nitrosamines) to avoid stress, the mice received daily intraperitoneal injection of 1 mg/kg recombinant RUCILP2, and saline, respectively, for 7 days. All animals were then sacrificed, and subcutaneous fat pads and liver tissue were collected. The mRNA levels of thermogenic genes including Ucp1, Elovl3, Cidea, and Prdm16 as well as lipogenic genes including Acaca and Fasn in inguinal fat were analyzed by qRT-PCR as described below.
RNA extraction and real-time PCR analysis: Total RNA was extracted from tissues using Trizol reagent (Invitrogen) according to the manufacturer's instructions, followed by concentration measurement. 1 μg RNA was transcribed to cDNA using the Reverse Transcription System (Promega). Real-time PCR was performed using the LC480 detection system (Roche Diagnostics) and SYBR Green I Supermix (Takara). Samples were run in duplicate in a single 384-well reaction plate. Data were normalized to the housekeeping Rp136, TBP or GAPDH genes and analyzed according to ΔΔCT method.

B1: RUCILP2: 87 amino acid irisin-like polypeptide cleaved from the Ruminococcus torques FNDC5-like protein RUMTOR_00181; recombinant, 6-His-tagged from E. coli (protein)
chain: APVDVKVSEITETSAKASWKNAADGKEAAGYNVYVDGVKLNKELLTEASCGLTNLKAETTYFVEVTAVDAAGNESVKSEKVTFKTLK
modifications: 6-His tag; Ruminococcus torques
notes: 87 amino acid irisin-like polypeptide cleaved from the Ruminococcus torques FNDC5-like protein RUMTOR_00181; recombinant, 6-His-tagged from E. coli
- insulin biosynthesis [1]: stimulates
- leptin expression in fat cells (fat cells): enhances
- expression of genes regulating lipogenesis (fat cells; adipocytes and liver cells): inhibits expression
- expression of genes involved in intestinal integration (Caco-2 cell line): increases expression
- expression of a gene involved in lipogenesis (inguinal fat): reduces expression
- expression of genes involved in thermogenesis (inguinal fat): induces expression
- expression of marker genes for lipolysis (inguinal fat): No effects

Source: patent US20240336661A1, “PEPTIDES DERIVED FROM RUMINOCOCCUS TORQUES” (University of Copenhagen, priority 2021, published 2024)
